Measured values: patent publication US20040147006

Experiments:
[1] = test system: phosphorylated peptide E1-P1 25 (SEQ ID NO: 18)
[2] = test system: phosphorylated T-ag peptide of SEQ ID NO: 15 used in the ATPase assay
[3] = test system: unphosphorylated peptide T-2 13 (SEQ ID NO: 3)
[4] = test system: unphosphorylated peptide E1-P2 25 (SEQ ID NO: 2)

SV40 T-antigen (T-ag)
ATPase of T-ag (32P-ATP hydrolysis, TLC autoradiography) [1]: had no effect | ATPase of T-ag (32P-ATP hydrolysis, TLC autoradiography) [2]: the phosphorylated peptide did not modulate the ATPase of T-ag activity | ATPase of T-ag (32P-ATP hydrolysis, TLC autoradiography) [3]: this peptide inhibited the ATPase of T-ag | ATPase of T-ag (32P-ATP hydrolysis, TLC autoradiography) [4]: blocked the degradation of ATP by T-ag
